For the data set, the system named is Escherichia coli TOP10. Kind of data set: shrunken log2 fold change of peptide-encoding DNA abundance (4.5 h post-induction vs induction); higher = less antimicrobial activity (less host growth inhibition). Particulars: time post-induction: 4.5 h; library: site-saturation at positions 5, 18, 19, 20.
On to RRIRRRPPRLPRPRPRPPAHPRP, for which the “shrunken log2 fold change” value was determined as 0.728. On to RRIRRRPPRLPRPRPRPVHHPRP, for which the “shrunken log2 fold change” value was -0.468. RRIRNRPPRLPRPRPRPACKPRP: the “shrunken log2 fold change” value worked out at 0.169. For RRIRLRPPRLPRPRPRPPAAPRP, the “shrunken log2 fold change” value came to 0.771. For RRIRKRPPRLPRPRPRPCRNPRP, the “shrunken log2 fold change” value is -0.0611. Consider RRIRGRPPRLPRPRPRPYWVPRP, for which the “shrunken log2 fold change” value was -0.178. RRIRIRPPRLPRPRPRPDQPPRP: the “shrunken log2 fold change” value was determined as 0.022. On to RRIRIRPPRLPRPRPRPGDIPRP, for which the “shrunken log2 fold change” value is -0.0899. With RRIRLRPPRLPRPRPRPCRPPRP, the “shrunken log2 fold change” value was -0.0863.

RRIRNRPPRLPRPRPRPKHEPRP: the “shrunken log2 fold change” value amounted to 0.13. The same measure for RRIRCRPPRLPRPRPRPAKQPRP: -0.0271; for RRIRARPPRLPRPRPRPGLSPRP: 0.821. As for RRIRTRPPRLPRPRPRPSSIPRP, the “shrunken log2 fold change” value is -0.233. Take RRIRPRPPRLPRPRPRPPRAPRP: the “shrunken log2 fold change” value amounted to 0.591. Take RRIRYRPPRLPRPRPRPQLVPRP: the “shrunken log2 fold change” value is -0.045. In the case of RRIRGRPPRLPRPRPRPQDSPRP it was 0.135; in that of RRIRVRPPRLPRPRPRPYTIPRP, -0.736; in that of RRIRWRPPRLPRPRPRPHTAPRP, -0.0505. Take RRIRGRPPRLPRPRPRPDGIPRP: the “shrunken log2 fold change” value was -0.0219.

On to RRIRMRPPRLPRPRPRPTHQPRP, for which the “shrunken log2 fold change” value worked out at 0.38. For RRIRVRPPRLPRPRPRPLTYPRP, the “shrunken log2 fold change” value was -0.356. Regarding RRIRRRPPRLPRPRPRPSFMPRP, the “shrunken log2 fold change” value is -0.106. As to RRIRNRPPRLPRPRPRPQMPPRP, the “shrunken log2 fold change” value is -0.334.

Take RRIRNRPPRLPRPRPRPPWYPRP: the “shrunken log2 fold change” value is -0.224. Regarding RRIRPRPPRLPRPRPRPRYFPRP, the “shrunken log2 fold change” value came out at 0.0508. In the case of RRIRNRPPRLPRPRPRPNEKPRP it was -0.00172; in that of RRIRTRPPRLPRPRPRPYMTPRP, -0.375. For the sequence RRIRLRPPRLPRPRPRPDKAPRP, the “shrunken log2 fold change” value worked out at 0.0248. In the case of RRIRNRPPRLPRPRPRPAEAPRP, the “shrunken log2 fold change” value is 0.057. For RRIRDRPPRLPRPRPRPLMTPRP, the “shrunken log2 fold change” value was determined as 0.195.

Regarding RRIRRRPPRLPRPRPRPGCGPRP, the “shrunken log2 fold change” value was determined as 0.657.

As to RRIRNRPPRLPRPRPRPNVPPRP, the “shrunken log2 fold change” value is -0.128. Consider RRIRMRPPRLPRPRPRPLWHPRP, for which the “shrunken log2 fold change” value was 0.336. In the case of RRIRNRPPRLPRPRPRPMDWPRP, the “shrunken log2 fold change” value was -0.0484. With RRIRPRPPRLPRPRPRPMMTPRP, the “shrunken log2 fold change” value is -0.146. With RRIRWRPPRLPRPRPRPQRLPRP, the “shrunken log2 fold change” value amounted to 0.159. Take RRIRMRPPRLPRPRPRPSGIPRP: the “shrunken log2 fold change” value is 0.0258. In the case of RRIRERPPRLPRPRPRPCMFPRP, the “shrunken log2 fold change” value was -0.531. Consider RRIRWRPPRLPRPRPRPQGNPRP, for which the “shrunken log2 fold change” value is -1.12. Regarding RRIRFRPPRLPRPRPRPSQIPRP, the “shrunken log2 fold change” value is -0.253. For RRIRNRPPRLPRPRPRPQVNPRP, the “shrunken log2 fold change” value was -0.129. The same measure for RRIRNRPPRLPRPRPRPETIPRP: -0.0777. Take RRIRKRPPRLPRPRPRPWIRPRP: the “shrunken log2 fold change” value was -0.336. With RRIRKRPPRLPRPRPRPRSRPRP, the “shrunken log2 fold change” value was determined as 0.418. The same measure for RRIRHRPPRLPRPRPRPLCMPRP: -0.708; for RRIRNRPPRLPRPRPRPMAFPRP: -0.192; for RRIRPRPPRLPRPRPRPLDYPRP: -0.495.

Consider RRIRQRPPRLPRPRPRPHFEPRP, for which the “shrunken log2 fold change” value amounted to 0.154. In the case of RRIRERPPRLPRPRPRPSCKPRP, the “shrunken log2 fold change” value was -0.277. RRIRWRPPRLPRPRPRPHSCPRP: the “shrunken log2 fold change” value is -0.0379. As for RRIRIRPPRLPRPRPRPVEQPRP, the “shrunken log2 fold change” value was found to be 0.107. In the case of RRIRMRPPRLPRPRPRPCGTPRP it was 1.97. For the sequence RRIRARPPRLPRPRPRPLGKPRP, the “shrunken log2 fold change” value was 0.237.

Consider RRIRNRPPRLPRPRPRPCIKPRP, for which the “shrunken log2 fold change” value was -0.207.

Consider RRIRRRPPRLPRPRPRPAAQPRP, for which the “shrunken log2 fold change” value worked out at 0.462. As to RRIRTRPPRLPRPRPRPIVPPRP, the “shrunken log2 fold change” value is -0.229. With RRIRWRPPRLPRPRPRPPHPPRP, the “shrunken log2 fold change” value worked out at 0.373. Consider RRIRDRPPRLPRPRPRPQQPPRP, for which the “shrunken log2 fold change” value stood at 0.902. The same measure for RRIRQRPPRLPRPRPRPYALPRP: -0.0202. Regarding RRIRHRPPRLPRPRPRPYVVPRP, the “shrunken log2 fold change” value worked out at 0.0242. The same measure for RRIRRRPPRLPRPRPRPMSCPRP: 0.0813; for RRIRKRPPRLPRPRPRPILPPRP: 2.29; for RRIRDRPPRLPRPRPRPMGIPRP: 0.0303. The same measure for RRIRWRPPRLPRPRPRPVGPPRP: 0.281. Take RRIRYRPPRLPRPRPRPYHMPRP: the “shrunken log2 fold change” value was -0.00245.

With RRIRFRPPRLPRPRPRPVCLPRP, the “shrunken log2 fold change” value was -0.121.

For the sequence RRIRGRPPRLPRPRPRPCFHPRP, the “shrunken log2 fold change” value was -0.011. RRIRVRPPRLPRPRPRPEKTPRP: the “shrunken log2 fold change” value turned out to be 0.0303.

Turning to RRIRGRPPRLPRPRPRPTLLPRP, the “shrunken log2 fold change” value was 0.884. The same measure for RRIRYRPPRLPRPRPRPFSCPRP: -0.0516; for RRIRLRPPRLPRPRPRPLTKPRP: -0.0425; for RRIRKRPPRLPRPRPRPDACPRP: 0.00649. The same measure for RRIRFRPPRLPRPRPRPLKNPRP: -0.193; for RRIRSRPPRLPRPRPRPMETPRP: 0.585; for RRIRYRPPRLPRPRPRPEHPPRP: -0.143. As to RRIRHRPPRLPRPRPRPGPEPRP, the “shrunken log2 fold change” value turned out to be 1.6. As to RRIRDRPPRLPRPRPRPCIFPRP, the “shrunken log2 fold change” value amounted to 0.168. In the case of RRIRTRPPRLPRPRPRPKIPPRP, the “shrunken log2 fold change” value is -0.21. As to RRIRMRPPRLPRPRPRPQVDPRP, the “shrunken log2 fold change” value was -0.00893. On to RRIRARPPRLPRPRPRPEMTPRP, for which the “shrunken log2 fold change” value is 1.23.

As to RRIRRRPPRLPRPRPRPAVVPRP, the “shrunken log2 fold change” value was 0.518. In the case of RRIRPRPPRLPRPRPRPGNWPRP it was 0.0527; in that of RRIRTRPPRLPRPRPRPGHMPRP, -0.233. With RRIRDRPPRLPRPRPRPGCPPRP, the “shrunken log2 fold change” value was found to be 0.0445. In the case of RRIRKRPPRLPRPRPRPMIMPRP, the “shrunken log2 fold change” value is -0.0451.

With RRIRKRPPRLPRPRPRPQSNPRP, the “shrunken log2 fold change” value was found to be 0.0971. For the sequence RRIRVRPPRLPRPRPRPYNKPRP, the “shrunken log2 fold change” value was -0.707.

Take RRIRLRPPRLPRPRPRPKLPPRP: the “shrunken log2 fold change” value is 0.492.

For the sequence RRIRLRPPRLPRPRPRPSHQPRP, the “shrunken log2 fold change” value is -0.231. In the case of RRIRARPPRLPRPRPRPIKMPRP it was 0.0129; in that of RRIRERPPRLPRPRPRPIDDPRP, 0.0583.

Source of the values: the supplement of paper PMC9112550, “Optimization of the antimicrobial peptide Bac7 by deep mutational scanning” (BMC Biology, 2022).
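Also: peptides expressed intracellularly from a pBAD plasmid library in pooled LB shake-flask culture, induced with 0.3% L-arabinose, DNA abundance read by NGS, three biological replicates, DESeq2 with apeglm shrinkage.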
